# Measured values taken from patent US20230192789A1, “STRUCTURALLY-STABILIZED AND HDMX-SELECTIVE P53 PEPTIDES AND USES THEREOF” (Dana-Farber Cancer Institute, Inc., priority 2020, published 2023).
# Bridges are numbered along the chain shown (N, C = ends). Where no end group is shown, it is not given here. [ ]: non-standard residue; d: D form. The star is where a group is joined. Biotin = O=C1N[C@H]2[C@H](CS[C@H]2CCCCC(=O)*)N1; R8 = C=CCCCCCC[C@@](C)(N)C(=O)O; S5 = C=CCCC[C@](C)(N)C(=O)O
# T1: recombinant HDMX (amino acids 1-490 of SEQ ID NO:104) (Homo sapiens, UniProt O15151)
# T1 construct: thioredoxin (N, cleaved yes); S tag (N, cleaved yes); hexahistidine (N, cleaved yes); made in house; host or cells: E. coli (inferred: pET32-LIC vector, handled as described for HDM2 in BL21(DE3))
# T1 sequence (O15151 1-490): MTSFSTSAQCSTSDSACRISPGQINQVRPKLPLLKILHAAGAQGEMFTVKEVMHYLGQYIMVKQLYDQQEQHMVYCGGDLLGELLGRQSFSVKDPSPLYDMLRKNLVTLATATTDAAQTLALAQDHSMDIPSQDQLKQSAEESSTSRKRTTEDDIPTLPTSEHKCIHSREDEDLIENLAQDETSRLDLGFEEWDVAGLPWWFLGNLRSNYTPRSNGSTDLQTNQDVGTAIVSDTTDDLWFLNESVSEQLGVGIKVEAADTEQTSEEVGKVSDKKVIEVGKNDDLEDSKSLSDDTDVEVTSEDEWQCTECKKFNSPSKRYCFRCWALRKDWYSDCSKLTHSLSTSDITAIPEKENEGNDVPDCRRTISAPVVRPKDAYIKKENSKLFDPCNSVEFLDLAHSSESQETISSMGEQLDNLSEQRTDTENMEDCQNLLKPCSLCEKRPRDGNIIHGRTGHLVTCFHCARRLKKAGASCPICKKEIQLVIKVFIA
# Molecular target: T1, recombinant HDMX (amino acids 1-490 of SEQ ID NO:104)
# Test: Competitive streptavidin pull-down of biotinylated peptides with 1:1 recombinant HDM2/HDMX mixture, HDMX western
# Format: binding
# Conditions: biotinylated stapled peptide, 1:1 mixture of recombinant HDM2 and HDMX
row,HDMX versus HDM2 binding selectivity,Molecule
1,dual selectivity to HDMX and HDM2,"SAH-p53-4 Q16A: Formula (I) stapled peptide: [Xaa]w LSAETF, [Xaa]x DLWKLL, [Xaa]y EN (LSAETF[R8]DLWKLL[S5]EN-NH2; staple 7-14; not fully specified)"
2,dual selectivity to HDMX and HDM2,"SAH-p53-4 N29E: Formula (I) stapled peptide: [Xaa]w LSQETF, [Xaa]x DLWKLL, [Xaa]y EE (LSQETF[R8]DLWKLL[S5]EE-NH2; staple 7-14; not fully specified)"
3,dual selectivity to HDMX and HDM2,"SAH-p53-4 L25R: Formula (I) stapled peptide: [Xaa]w LSQETF, [Xaa]x DLWKRL, [Xaa]y EN (LSQETF[R8]DLWKRL[S5]EN-NH2; staple 7-14; not fully specified)"
4,HDMX selectivity over HDM2,"SAH-p53-4 Q16E: Formula (I) stapled peptide: [Xaa]w LSEETF, [Xaa]x DLWKLL, [Xaa]y EN (LSEETF[R8]DLWKLL[S5]EN-NH2; staple 7-14; not fully specified (N-terminus))"
5,dual selectivity to HDMX and HDM2,"SAH-p53-4 T18A: Formula (I) stapled peptide: [Xaa]w LSQEAF, [Xaa]x DLWKLL, [Xaa]y EN (LSQEAF[R8]DLWKLL[S5]EN-NH2; staple 7-14; not fully specified)"
6,selectivity to HDM2,"SAH-p53-4 K24A: Formula (I) stapled peptide: [Xaa]w LSQETF, [Xaa]x DLWALL, [Xaa]y EN (LSQETF[R8]DLWALL[S5]EN-NH2; staple 7-14; not fully specified (N-terminus))"
7,selectivity to HDM2,"SAH-p53-4 L14E: Formula (I) stapled peptide: [Xaa]w ESQETF, [Xaa]x DLWKLL, [Xaa]y EN (ESQETF[R8]DLWKLL[S5]EN-NH2; staple 7-14; also: biotinylated)"

row,Molecule,HDMX versus HDM2 binding selectivity
1,ATSP-7041 B26Q (Biotin-LTF[R8]EYWAQQ[S5]SAA-NH2; staple 4-11; SMILES CC(C)C[C@H](NC(=O)CCCC[C@@H]1SC[C@@H]2NC(=O)N[C@@H]21)C(=O)N[C@H](C(=O)N[C@@H](Cc1ccccc1)C(=O)N[C@]1(C)CCCCCCC=CCCC[C@@](C)(C(=O)N[C@@H](CO)C(=O)N[C@@H](C)C(=O)N[C@@H](C)C(N)=O)NC(=O)[C@H](CCC(N)=O)NC(=O)[C@H](CCC(N)=O)NC(=O)[C@H](C)NC(=O)[C@H](Cc2c[nH]c3ccccc23)NC(=O)[C@H](Cc2ccc(O)cc2)NC(=O)[C@H](CCC(=O)O)NC1=O)[C@@H](C)O),HDMX selectivity over HDM2
2,ATSP-7041 B26V (Biotin-LTF[R8]EYWAQV[S5]SAA-NH2; staple 4-11; SMILES CC(C)C[C@H](NC(=O)CCCC[C@@H]1SC[C@@H]2NC(=O)N[C@@H]21)C(=O)N[C@H](C(=O)N[C@@H](Cc1ccccc1)C(=O)N[C@]1(C)CCCCCCC=CCCC[C@@](C)(C(=O)N[C@@H](CO)C(=O)N[C@@H](C)C(=O)N[C@@H](C)C(N)=O)NC(=O)[C@H](C(C)C)NC(=O)[C@H](CCC(N)=O)NC(=O)[C@H](C)NC(=O)[C@H](Cc2c[nH]c3ccccc23)NC(=O)[C@H](Cc2ccc(O)cc2)NC(=O)[C@H](CCC(=O)O)NC1=O)[C@@H](C)O),HDMX selectivity over HDM2

# Same assay, conditions: biotinylated stapled peptide, 1:1 mixture of recombinant HDM2 and HDMX, listed as SEQ ID NO:32
row,HDMX versus HDM2 binding selectivity,Molecule
1,selectivity to HDMX,"SAH-p53-4 Q16E: Formula (I) stapled peptide: [Xaa]w LSEETF, [Xaa]x DLWKLL, [Xaa]y EN (LSEETF[R8]DLWKLL[S5]EN-NH2; staple 7-14; not fully specified (N-terminus))"

# Molecular target: T2, recombinant HDM2 (amino acids 17-125 of SEQ ID NO:103) (human, UniProt Q00987 17-125)
# T2 construct: also called MDM2; not shown: thrombin cleavage site (pET28a vector)
# T2 sequence (Q00987 other isoform, or with tags, fused parts or gaps): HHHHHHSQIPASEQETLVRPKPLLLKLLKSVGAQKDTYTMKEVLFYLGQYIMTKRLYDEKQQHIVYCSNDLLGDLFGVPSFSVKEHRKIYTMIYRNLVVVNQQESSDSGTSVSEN
# Test: streptavidin pull-down of biotinylated peptide with recombinant HDM2 and HDMX (1:1 mixture per paragraph 301), western blot
# Conditions: not given
row,binding result,Molecule
1,no binding,"LTF[R8]EYWAQE[S5]SAA-NH2 (staple 4-11; not fully specified; printed as LTF8EYWAQEXSAA, also called ATSP B26E; LTF8EYWAQEXSAA) [ATSP-7041 B26E]"
2,no binding,Biotin-LTF[R8]EYWAQP[S5]SAA-NH2 (staple 4-11; SMILES CC(C)C[C@H](NC(=O)CCCC[C@@H]1SC[C@@H]2NC(=O)N[C@@H]21)C(=O)N[C@H](C(=O)N[C@@H](Cc1ccccc1)C(=O)N[C@]1(C)CCCCCCC=CCCC[C@@](C)(C(=O)N[C@@H](CO)C(=O)N[C@@H](C)C(=O)N[C@@H](C)C(N)=O)NC(=O)[C@@H]2CCCN2C(=O)[C@H](CCC(N)=O)NC(=O)[C@H](C)NC(=O)[C@H](Cc2c[nH]c3ccccc23)NC(=O)[C@H](Cc2ccc(O)cc2)NC(=O)[C@H](CCC(=O)O)NC1=O)[C@@H](C)O) [ATSP-7041 B26P]
3,no binding,Biotin-LTF[R8]EYWAQN[S5]SAA-NH2 (staple 4-11; SMILES CC(C)C[C@H](NC(=O)CCCC[C@@H]1SC[C@@H]2NC(=O)N[C@@H]21)C(=O)N[C@H](C(=O)N[C@@H](Cc1ccccc1)C(=O)N[C@]1(C)CCCCCCC=CCCC[C@@](C)(C(=O)N[C@@H](CO)C(=O)N[C@@H](C)C(=O)N[C@@H](C)C(N)=O)NC(=O)[C@H](CC(N)=O)NC(=O)[C@H](CCC(N)=O)NC(=O)[C@H](C)NC(=O)[C@H](Cc2c[nH]c3ccccc23)NC(=O)[C@H](Cc2ccc(O)cc2)NC(=O)[C@H](CCC(=O)O)NC1=O)[C@@H](C)O) [ATSP-7041 B26N]
4,no binding,Biotin-LTF[R8]EYWAQD[S5]SAA-NH2 (staple 4-11; SMILES CC(C)C[C@H](NC(=O)CCCC[C@@H]1SC[C@@H]2NC(=O)N[C@@H]21)C(=O)N[C@H](C(=O)N[C@@H](Cc1ccccc1)C(=O)N[C@]1(C)CCCCCCC=CCCC[C@@](C)(C(=O)N[C@@H](CO)C(=O)N[C@@H](C)C(=O)N[C@@H](C)C(N)=O)NC(=O)[C@H](CC(=O)O)NC(=O)[C@H](CCC(N)=O)NC(=O)[C@H](C)NC(=O)[C@H](Cc2c[nH]c3ccccc23)NC(=O)[C@H](Cc2ccc(O)cc2)NC(=O)[C@H](CCC(=O)O)NC1=O)[C@@H](C)O) [ATSP-7041 B26D]
5,no binding,Biotin-LTF[R8]EYWAQG[S5]SAA-NH2 (staple 4-11; SMILES CC(C)C[C@H](NC(=O)CCCC[C@@H]1SC[C@@H]2NC(=O)N[C@@H]21)C(=O)N[C@H](C(=O)N[C@@H](Cc1ccccc1)C(=O)N[C@]1(C)CCCCCCC=CCCC[C@@](C)(C(=O)N[C@@H](CO)C(=O)N[C@@H](C)C(=O)N[C@@H](C)C(N)=O)NC(=O)CNC(=O)[C@H](CCC(N)=O)NC(=O)[C@H](C)NC(=O)[C@H](Cc2c[nH]c3ccccc23)NC(=O)[C@H](Cc2ccc(O)cc2)NC(=O)[C@H](CCC(=O)O)NC1=O)[C@@H](C)O) [ATSP-7041 B26G]
6,no binding,Biotin-LTF[R8]EYWAQC[S5]SAA-NH2 (staple 4-11; SMILES CC(C)C[C@H](NC(=O)CCCC[C@@H]1SC[C@@H]2NC(=O)N[C@@H]21)C(=O)N[C@H](C(=O)N[C@@H](Cc1ccccc1)C(=O)N[C@]1(C)CCCCCCC=CCCC[C@@](C)(C(=O)N[C@@H](CO)C(=O)N[C@@H](C)C(=O)N[C@@H](C)C(N)=O)NC(=O)[C@H](CS)NC(=O)[C@H](CCC(N)=O)NC(=O)[C@H](C)NC(=O)[C@H](Cc2c[nH]c3ccccc23)NC(=O)[C@H](Cc2ccc(O)cc2)NC(=O)[C@H](CCC(=O)O)NC1=O)[C@@H](C)O) [ATSP-7041 B26C]
7,no binding,Biotin-LTF[R8]EYWAQK[S5]SAA-NH2 (staple 4-11; SMILES CC(C)C[C@H](NC(=O)CCCC[C@@H]1SC[C@@H]2NC(=O)N[C@@H]21)C(=O)N[C@H](C(=O)N[C@@H](Cc1ccccc1)C(=O)N[C@]1(C)CCCCCCC=CCCC[C@@](C)(C(=O)N[C@@H](CO)C(=O)N[C@@H](C)C(=O)N[C@@H](C)C(N)=O)NC(=O)[C@H](CCCCN)NC(=O)[C@H](CCC(N)=O)NC(=O)[C@H](C)NC(=O)[C@H](Cc2c[nH]c3ccccc23)NC(=O)[C@H](Cc2ccc(O)cc2)NC(=O)[C@H](CCC(=O)O)NC1=O)[C@@H](C)O) [ATSP-7041 B26K]
8,no binding,Biotin-LTF[R8]EYWAQH[S5]SAA-NH2 (staple 4-11; SMILES CC(C)C[C@H](NC(=O)CCCC[C@@H]1SC[C@@H]2NC(=O)N[C@@H]21)C(=O)N[C@H](C(=O)N[C@@H](Cc1ccccc1)C(=O)N[C@]1(C)CCCCCCC=CCCC[C@@](C)(C(=O)N[C@@H](CO)C(=O)N[C@@H](C)C(=O)N[C@@H](C)C(N)=O)NC(=O)[C@H](Cc2c[nH]cn2)NC(=O)[C@H](CCC(N)=O)NC(=O)[C@H](C)NC(=O)[C@H](Cc2c[nH]c3ccccc23)NC(=O)[C@H](Cc2ccc(O)cc2)NC(=O)[C@H](CCC(=O)O)NC1=O)[C@@H](C)O) [ATSP-7041 B26H]
